# Measured values: US20220257632A1, “MICROLUMENAL TARGETING OF CANCER CELLS” (Fred Hutchinson Cancer Research Center, priority 2019, published 2022)
# B1: recombinant epigen: Recombinant epigen (R&D 1127-EP), growth factor and EGFR ligand (protein, UniProt Q6UW88 23-154, looked up)
# Epigen: AAVTVTPPITAQQGNWTVNKTEADNIEGPIALKFSHLCLEDHNSYCINGACAFHHELEKAICRCFTGYTGERCEHLTLTSYAVDSYEKYIAIGIGVGLLLSGFLVIFYCYIRKRCLKLKSPYNVCSGERRPL
# B2: interferon gamma (protein, UniProt P01579 24-161, looked up)
# Interferon gamma: QDPYVKEAENLKKYFNAGHSDVADNGTLFLGILKNWKEESDRKIMQSQIVSFYFKLFKNFKDDQSIQKSVETIKEDMNVKFFNSNKKKRDDFEKLTNYSVTDLNVQRKAIHELIQVMAELSPAAKTGKRKRSQMLFRG
# notes: a cytokine FDA-approved for use in patients
# Columns and labels:
# MMTV-PyMT clusters [1] = test: Sulfo-NHS-biotin permeability of MMTV-PyMT clusters; type: cell-based, mouse; details: treatment 1 hr prior to biotin
# Experimental: (§1) FIG. 4C is a quantification of epigen immunogold signal; n=268 gold particles. To determine if microlumenal junctions were permeable, clusters were incubated with cell-impermeable sulfo-NHS-biotin. 1 mM EGTA was used as a positive control to disrupt cell-cell junctions. Biotin leak was quantified by measuring streptavidin-FITC fluorescence signal within clusters. n=3 biological replicates. n=75 clusters per condition. P-values=Mann-Whitney tests (FIG. 4D) Immunofluorescence of epigen in clusters with and without 1 mM EGTA treatment to disrupt cell-cell junctions was measured. […] P-value=Mann-Whitney test.
# The accumulation of epigen within microlumina implied a mechanism for preventing ligand diffusion and signal reduction. To characterize the permeability of tumor cell clusters, a technique used to differentially label apical and basal proteins was adapted. Clusters were treated with a cell impermeable biotin (sulfo-NHS-biotin, 0.4 KDa) which labels membrane surface proteins but is excluded from the cytosol. At baseline, biotin was excluded from cell-cell junction membranes within MMTV-PyMT clusters and predominantly labeled the cell-matrix junction membranes (FIG. 4D).
# To test the permeability of tumor cell clusters, NHS-biotin was added to a final concentration of 0.8 mM in PBS for 30 minutes at 37° C. […]
# (§2) Phalloidin staining and DAPI were used to define membrane and nuclear areas, respectively. Using the freehand line tool in FIJI software, lines along cell-matrix (outer membrane), cell-cell (intercellular) membranes, and intracellular (cytosolic) areas were drawn and median fluorescence intensity was measured for each channel. […] Then the polygon selection tool was used to measure FITC-streptavidin intensity in the cluster core (excluding the cell-matrix contacts) and intensity was normalized to the area measured. To assess biotin permeability in tumor vs. stroma areas, mean FITC-streptavidin signal was measured in FIJI in equally sized squares in adjacent pure tumor or pure stroma areas. […]
# MMTV-PyMT clusters [2] = test: Epigen immunofluorescence in MMTV-PyMT clusters after junction disruption; type: cell-based, mouse
# Experimental: as §1, with “test. […]” for “test.”
# as §2
# tumor cell clusters = test: Cluster outgrowth on treatment with recombinant epigen; type: cell-based
# HCC70 clusters [3] = test: Tail vein lung metastasis assay of IFNγ pre-treated HCC70 clusters in NSG mice; type: in vivo; details: clusters pre-treated 6 days at 2 ng/mL, 3 weeks
# Text: (§3) FIG. 7A is a qPCR measurement of EPGN expression in HCC70 clusters. n=3 biological replicates. P-values=unpaired t-tests. […] P-values=unpaired t-tests. FIG. 7C is a quantification of individual lung metastasis areas (lungs three weeks after tail vein injection of 200,000 Ctrl-kd or Epgn-kd HCC70 clustered cells). n (# of metastases): Ctrl-kd=299, Epgn-kd=87. n (# of mice): 7 per condition. Box plot=5-95%. P-value=Mann-Whitney test. […] Line=non-linear regression. Band=95% CI. n=3 biological replicates. P-value=extra sum-of-squares F test. […] P-value=Mann-Whitney test. FIG. 7F is a quantification of internal FITC-streptavidin intensity biotin leak-in assay of HCC70 clusters after 6 days of treatment with or without 3 ng/mL IFNγ). n=60 untreated clusters, 70 IFNγ treated clusters. n=3 biological replicates. P-value=Mann-Whitney test. […] 3 weeks later, lung metastases were scored by staining for the human-specific marker CD298. […]
# For single cell vs. cluster experiments, mTomato-PyMT organoids were dissociated to single cells at day 0 using Accumax (20 minutes at 37° C.). […] DIC images were taken before injection and assessed to ensure similar number and size of clusters injected between conditions. 3 weeks after tail vein injection mice were euthanized and lungs imaged under a dissecting microscope for quantification of fluorescent (metastatic) area. […]
# [4] = test system: HCC70 tumor cell clusters; test: Viable cell quantification of HCC70 clusters after 6 days of IFNγ treatment; type: cell-based, human
# Text: FIG. 7A is a qPCR measurement of EPGN expression in HCC70 clusters. n=3 biological replicates. P-values=unpaired t-tests. […] P-values=unpaired t-tests. FIG. 7C is a quantification of individual lung metastasis areas (lungs three weeks after tail vein injection of 200,000 Ctrl-kd or Epgn-kd HCC70 clustered cells). n (# of metastases): Ctrl-kd=299, Epgn-kd=87. n (# of mice): 7 per condition. Box plot=5-95%. P-value=Mann-Whitney test. […] Line=non-linear regression. Band=95% CI. n=3 biological replicates. P-value=extra sum-of-squares F test. […] P-value=Mann-Whitney test. FIG. 7F is a quantification of internal FITC-streptavidin intensity biotin leak-in assay of HCC70 clusters after 6 days of treatment with or without 3 ng/mL IFNγ). n=60 untreated clusters, 70 IFNγ treated clusters. n=3 biological replicates. P-value=Mann-Whitney test. FIG. 7G is a TEM of HCC70 clusters after 6 days with and without IFNγ treatment (3 ng/mL). MP=microvilli-like protrusions. J=cell-cell junctions. FIG. 7H is a qPCR of (left) RAB25 and (right) CLDN7 in HCC70 clusters after 0, 3, and 6 days with and without 3 ng/mL IFNγ treatment. n=3 biological replicates. P-value=unpaired t-test. FIGS. 7I and 7J: HCC70 single cells were aggregated for 24 hrs then treated with or without 2 ng/mL IFNγ treatment. After 6 days of treatment, clusters from each condition were injected by tail vein into NSG mice, with 200,000 viable clustered cells injected per animal. 3 weeks later, lung metastases were scored by staining for the human-specific marker CD298. Sizes of individual HCC70 metastases at 3 weeks after tail vein injection. n=8 mice/condition, 217 untreated metastases, 79 IFNγ pre-treated metastases. Box plot=5-95%. P-value=Mann-Whitney test (7I). […]
# Human cell lines were cultured in complete media (DMEM or RPMI with penicillin/streptomycin+10% FBS) on tissue-culture treated plates, or in non-adherent plates supplemented with 2% Matrigel (v/v). […] Human organoids were cultured with 2% (v/v) or 100% growth factor reduced Matrigel (Corning) with HuMEC Ready media (Fisher 12752010).
# HCC70 clusters [5] = test: qPCR of RAB25 and CLDN7 in HCC70 clusters; type: cell-based, human; details: 3 ng/mL
# Text: (§4) FIG. 7A is a qPCR measurement of EPGN expression in HCC70 clusters. n=3 biological replicates. P-values=unpaired t-tests. […] P-values=unpaired t-tests. FIG. 7C is a quantification of individual lung metastasis areas (lungs three weeks after tail vein injection of 200,000 Ctrl-kd or Epgn-kd HCC70 clustered cells). n (# of metastases): Ctrl-kd=299, Epgn-kd=87. n (# of mice): 7 per condition. Box plot=5-95%. P-value=Mann-Whitney test. […] Line=non-linear regression. Band=95% CI. n=3 biological replicates. P-value=extra sum-of-squares F test. […] P-value=Mann-Whitney test. FIG. 7F is a quantification of internal FITC-streptavidin intensity biotin leak-in assay of HCC70 clusters after 6 days of treatment with or without 3 ng/mL IFNγ). n=60 untreated clusters, 70 IFNγ treated clusters. n=3 biological replicates. P-value=Mann-Whitney test. FIG. 7G is a TEM of HCC70 clusters after 6 days with and without IFNγ treatment (3 ng/mL). MP=microvilli-like protrusions. J=cell-cell junctions. FIG. 7H is a qPCR of (left) RAB25 and (right) CLDN7 in HCC70 clusters after 0, 3, and 6 days with and without 3 ng/mL IFNγ treatment. n=3 biological replicates. P-value=unpaired t-test. […] 3 weeks later, lung metastases were scored by staining for the human-specific marker CD298. […]
# Human or mouse tumor cell clusters were pelleted and snap frozen in liquid nitrogen. […] Data were analyzed using the ΔΔCt method.
# MDA-MB-231 [6] = test: Biotin permeability of MDA-MB-231 clusters; type: cell-based, human; details: MDA-MB-231, with or without treatment
# HCC70 clusters [7] = test: TEM of HCC70 clusters with and without IFNγ; type: cell-based, human; details: 6 days, 3 ng/mL
# Text: as §4, with “t-test. FIGS. 7I and 7J: HCC70 single cells were aggregated for 24 hrs then treated with or without 2 ng/mL IFNγ treatment.” for “t-test.”
# MDA-MB-231 [8] = test: Viable cell quantification of MDA-MB-231 after 6 days of IFNγ treatment; type: cell-based, human; details: MDA-MB-231, viable cells after 6 days of treatment
# HCC70 clusters [9] = test: pHH3 immunofluorescence (mitotic cells) and cell death in HCC70 clusters; type: cell-based, human
# HCC70 clusters [10] = test: Biotin leak-in permeability assay of HCC70 clusters; type: cell-based, human; details: 6 days, 3 ng/mL
# Text: as §3, with “replicates.” for “replicates. P-value=Mann-Whitney test.”
# Phalloidin staining and DAPI were used to define membrane and nuclear areas, respectively. Using the freehand line tool in FIJI software, lines along cell-matrix (outer membrane), cell-cell (intercellular) membranes, and intracellular (cytosolic) areas were drawn and median fluorescence intensity was measured for each channel. […] To assess biotin permeability in tumor vs. stroma areas, mean FITC-streptavidin signal was measured in FIJI in equally sized squares in adjacent pure tumor or pure stroma areas. […]
# [11] = HCC70 tumor cell clusters, viable cells after 6 days of treatment
molecule,measurement,setting,value
C/C1=C/C(=O)O[C@@H]2C[C@@H](CC[C@H](C)/C=C\C=C\CC1)O[C@@](O)([C@@H]1CSC(=O)N1)C2 [Latrunculin A],biotin leak into clusters,MMTV-PyMT clusters [1],allowed biotin to leak between clustered cells
C[C@@H]1Cc2c(Cl)cc(C(=O)N[C@@H](Cc3ccccc3)C(=O)O)c(O)c2C(=O)O1 [ochratoxin A],biotin leak into clusters,MMTV-PyMT clusters [1],allowed biotin to leak between clustered cells
"O=C(O)CN(CCOCCOCCN(CC(=O)O)CC(=O)O)CC(=O)O [calcium chelation, ethylene glycol-bis(β-aminoethyl ether)-N,N,N′,N′-tetraacetic acid]",epigen signal in clusters (immunofluorescence),MMTV-PyMT clusters [2],marked loss of epigen signal
same,biotin leak into clusters,MMTV-PyMT clusters [1],biotin was able to leak into intercellular spaces
B1,outgrowth,tumor cell clusters,induced outgrowth in a dose-dependent manner
B2,number of lung metastases,HCC70 clusters [3],fewer
same,size of lung metastases,HCC70 clusters [3],significantly smaller
same,outgrowth,[4]; HCC70 clusters,markedly reduced outgrowth
same,IC50,[4]; [11],0.58 ng/mL
same,IC75,[4]; [11],0.97 ng/mL
same,CLDN7 expression (qPCR),HCC70 clusters [5],significant reduction
same,RAB25 expression (qPCR),HCC70 clusters [5],significant reduction
same,biotin permeability,MDA-MB-231 [6],highly biotin-permeable in both the absence or presence of IFNγ treatment
same,microlumenal spacing and electron-dense junctions by TEM,HCC70 clusters [7],increased microlumenal spacing and decreased electron-dense junctions
same,IC50,MDA-MB-231 [8],4.24 ng/mL
same,IC75,MDA-MB-231 [8],22.3 ng/mL
same,cell death,HCC70 clusters [9],not increased cell death
same,proliferation (% pHH3+ nuclei),"HCC70 clusters [9]; 6 days, 3 ng/mL",strong suppression of proliferation
same,intercellular permeability by biotin-leak assay,HCC70 clusters [10],increased intercellular permeability
